From publication PMC2408616, “Modular Organization and Combinatorial Energetics of Proline–Tyrosine Nuclear Localization Signals” (PLoS Biology, 2008)
Where a chain is given by its changes, count along the chain named. In names and notes the source's numbering stands. Read-outs that look alike come from different tables or passages of the source.

Experiments:
[1] = target: Kap104p (UniProt P38217); assay: ITC
[2] = target: T1, Kap104p (yeast (S. cerevisiae), UniProt P38217 1-918); assay: ITC
T1 chain: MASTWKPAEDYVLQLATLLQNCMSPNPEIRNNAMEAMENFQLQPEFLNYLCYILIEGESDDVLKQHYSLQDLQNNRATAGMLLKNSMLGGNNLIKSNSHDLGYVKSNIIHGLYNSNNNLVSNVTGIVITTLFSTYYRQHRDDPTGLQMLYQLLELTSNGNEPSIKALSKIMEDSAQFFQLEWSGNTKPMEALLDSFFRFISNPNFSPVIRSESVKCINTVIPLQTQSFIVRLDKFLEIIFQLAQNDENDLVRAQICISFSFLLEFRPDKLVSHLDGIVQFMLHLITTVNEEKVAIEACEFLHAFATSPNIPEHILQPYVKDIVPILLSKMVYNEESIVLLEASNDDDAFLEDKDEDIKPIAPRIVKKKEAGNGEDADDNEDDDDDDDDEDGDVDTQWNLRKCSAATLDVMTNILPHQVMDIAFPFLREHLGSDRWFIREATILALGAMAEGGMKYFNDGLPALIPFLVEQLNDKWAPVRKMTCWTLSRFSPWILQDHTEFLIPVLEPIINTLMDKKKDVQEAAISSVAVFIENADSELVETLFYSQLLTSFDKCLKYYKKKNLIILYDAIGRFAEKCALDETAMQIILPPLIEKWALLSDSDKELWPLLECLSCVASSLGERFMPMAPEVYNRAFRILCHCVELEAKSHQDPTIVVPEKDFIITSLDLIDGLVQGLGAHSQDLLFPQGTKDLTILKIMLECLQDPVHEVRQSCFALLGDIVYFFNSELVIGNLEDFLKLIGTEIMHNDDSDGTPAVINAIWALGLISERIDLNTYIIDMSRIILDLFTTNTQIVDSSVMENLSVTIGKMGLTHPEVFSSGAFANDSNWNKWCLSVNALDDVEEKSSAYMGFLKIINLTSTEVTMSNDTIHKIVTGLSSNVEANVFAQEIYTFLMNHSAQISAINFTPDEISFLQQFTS

[3] = target: T2, Kap104p (yeast (S. cerevisiae), UniProt P38217 1-918); assay: pull-down; ~30 μg Kap104p added to ~10 μg GST protein immobilized on 20 μl glutathione sepharose; washes with TB buffer (20 mM HEPES pH 7.3, 110 mM KAc, 2 mM MgAc, 1 mM EGTA, 2 mM DTT, 20% glycerol); second incubation with buffer or RanGTP (5-fold molar excess); SDS-PAGE, Coomassie; conditions: both partners purified
T2 construct: Kap104p, yeast homolog of Kapβ2; gene a gift from J. Aitchison, subcloned into pGEX-Tev; also called yeast Karyopherin β2 homolog; source: E. coli Rosetta(DE3)pLysS, purified (glutathione sepharose, TEV cleavage, anion exchange, gel filtration)
T2 sequence (looked up): T1 chain

[4] = target: T1, Kap104p; assay: ITC
[5] = target: T3, Kap104p, P38217; assay: ITC; design: other: TΔS: unit not given here; conditions: for Kd / other: TΔS / dG / other: ΔH: chain shown with the change;; for Kd: parent: 37 ± 20; for ddG / ratio to parent: chain shown with the change; for other: TΔS: parent: -1.3 ± 0.6; for dG: parent: -10.0 ± 0.3; for other: ΔH: parent: -11.3 ± 0.5
T3 chain: T1 chain

[6] = target: T2, Kap104p; assay: ITC; 90–350 μM MBP-NLS titrated into 9–35 μM Kap104p in the cell; 20 °C; 20 mM Tris pH 7.5, 100 mM NaCl, 2 mM β-mercaptoethanol, 10% glycerol; 35 injections of 8 μl; single-site model; conditions: both partners purified
[7] = target: T3, Kap104p, P38217; assay: ITC; conditions: for ddG / ratio to parent: chain shown with the change; for other: TΔS / Kd / other: ΔH / dG: chain shown with the change;; for other: TΔS: parent: 0.09 ± 0.7; for Kd: parent: 32 ± 16; for other: ΔH: parent: -10.0 ± 0.5; for dG: parent: -10.1 ± 0.3

MBP–Hrp1p NLS (from UniProt Q99383) R512A; 524RR525/AA
ddG [1]: 0.1 kcal/mol
ratio to parent [1]: 1.4
other: TΔS ([1]; parent: 0.09 ± 0.7): 0.06 kcal/mol
other: ΔH ([1]; parent: -10.0 ± 0.5): -9.9 kcal/mol
dG ([1]; parent: -10.1 ± 0.3): -9.9 kcal/mol

B1: MBP–Nab2p NLS 210GGG212/AAA (protein)
chain: DNSQRFTQRAAAAVGKNRRGGRGGNRGGRNNNSTRFNPLAKALGMAGESNM
ddG [1]: -0.4 kcal/mol
ratio to parent [1]: 0.5
Kd ([1]; parent: 37 ± 20): 19 nM
other: TΔS ([1]; parent: -1.3 ± 0.6): 0.5 kcal/mol
dG ([1]; parent: -10.0 ± 0.3): -10.4 kcal/mol
other: ΔH ([1]; parent: -11.3 ± 0.5): -9.8 kcal/mol
Kd [2]: 19 nM

B2: GST–Tfg2p, full-length (natural protein, S. cerevisiae, UniProt P41896 1-400, looked up)
chain: MSSGSAGAPALSNNSTNSVAKEKSGNISGDEYLSQEEEVFDGNDIENNETKVYEESLDLDLERSNRQVWLVRLPMFLAEKWRDRNNLHGQELGKIRINKDGSKITLLLNENDNDSIPHEYDLELTKKVVENEYVFTEQNLKKYQQRKKELEADPEKQRQAYLKKQEREEELKKKQQQQKRRNNRKKFNHRVMTDRDGRDRYIPYVKTIPKKTAIVGTVCHECQVMPSMNDPNYHKIVEQRRNIVKLNNKERITTLDETVGVTMSHTGMSMRSDNSNFLKVGREKAKSNIKSIRMPKKEILDYLFKLFDEYDYWSLKGLKERTRQPEAHLKECLDKVATLVKKGPYAFKYTLRPEYKKLKEEERKATLGELADEQTGSAGDNAQGDAEADLEDEIEMEDVV
notes: Tfg2p, S. cerevisiae; source: E. coli BL21(DE3), immobilized on glutathione sepharose
binding result [3]: binds

B3: MBP–Hrp1p NLS R512A, 524RR525/AA (peptide)
chain: RDRNDRDRDYNHRSGGNHARNGRGGRGGYNAANNGYHPYNR
Kd [4]: 44 nM

B4: MBP–Hrp1p NLS R512A, Y529A (peptide)
chain: B3 chain with A31R, A32R, Y36A
Kd [4]: 60 nM

B5: MBP–Nab2p NLS 216KNRR219/AAAA (domain or fragment, S. cerevisiae, UniProt P32505 201-251, looked up)
chain: DNSQRFTQRGGGAVGAAAAGGRGGNRGGRNNNSTRFNPLAKALGMAGESNM
notes: Nab2p NLS, residues 201-251; source: E. coli BL21(DE3), purified (amylose resin, cation exchange)
Kd [5]: 109 nM
fold decrease in affinity against wild type [6]: 3 fold

B6: MBP–Nab2p NLS 222RGG224 to alanines (domain or fragment, S. cerevisiae, UniProt P32505 201-251, looked up)
chain: B1 chain with A10G, A11G, A12G, R22A, G23A, G24A
notes: as for B5
ddG [5]: 0.3 kcal/mol
ratio to parent [5]: 1.6
Kd [5]: 58 nM
other: TΔS [5]: 0.06
dG [5]: -9.7 kcal/mol
other: ΔH [5]: -9.6 kcal/mol
binding result [6]: binds

B7: MBP–Nab2p NLS 226RGGRN230 to alanines (domain or fragment, S. cerevisiae, UniProt P32505 201-251, looked up)
chain: DNSQRFTQRGGGAVGKNRRGGRGGNAAAAANNSTRFNPLAKALGMAGESNM
notes: as for B5
ddG [5]: 0.3 kcal/mol
ratio to parent [5]: 1.6
Kd [5]: 59 nM
other: TΔS [5]: -0.2
dG [5]: -9.7 kcal/mol
other: ΔH [5]: -9.9 kcal/mol
binding result [6]: binds

B8: GST–Nab2p, full-length (natural protein, S. cerevisiae, UniProt P32505 1-525, looked up)
chain: MSQEQYTENLKVIVAEKLAGIPNFNEDIKYVAEYIVLLIVNGGTVESVVDELASLFDSVSRDTLANVVQTAFFALEALQQGESAENIVSKIRMMNAQSLGQSDIAQQQQQQQQQQQPDIAQQQPQQQPQQQPQQQPQQQPQQQPQQQPQQQPQQQPQLQPLQPQLGTQNAMQTDAPATPSPISAFSGVVNAAAPPQFAPVDNSQRFTQRGGGAVGKNRRGGRGGNRGGRNNNSTRFNPLAKALGMAGESNMNFTPTKKEGRCRLFPHCPLGRSCPHAHPTKVCNEYPNCPKPPGTCEFLHPNEDEELMKEMERTREEFQKRKADLLAAKRKPVQTGIVLCKFGALCSNPSCPFGHPTPANEDAKVIDLMWCDKNLTCDNPECRKAHSSLSKIKEVKPISQKKAAPPPVEKSLEQCKFGTHCTNKRCKYRHARSHIMCREGANCTRIDCLFGHPINEDCRFGVNCKNIYCLFRHPPGRVLPEKKGAAPNSNVPTNERPFALPENAIIENAPPQTSFTHQEQDTEMN
notes: Nab2p, S. cerevisiae; also called full-length Nab2p; source: E. coli BL21(DE3), immobilized on glutathione sepharose
binding result [3]: binds

B9: MBP–Hrp1p NLS 519RGGYN523/AAAAA (domain or fragment, S. cerevisiae, UniProt Q99383 494-534, looked up)
chain: RDRNDRDRDYNHRSGGNHRRNGRGGAAAAARRNNGYHPYNR
notes: Hrp1p NLS, residues 494-534; source: E. coli BL21(DE3), purified (amylose resin, cation exchange)
ddG [7]: -0.4 kcal/mol
ratio to parent [7]: 0.5
other: TΔS [7]: -3.8 kcal/mol/K
Kd [7]: 17 nM
other: ΔH [7]: -14.2 kcal/mol
dG [7]: -10.4 kcal/mol
binding result [6]: binds

B10: MBP–Hrp1p NLS 506RSGG509/AAAA (domain or fragment, S. cerevisiae, UniProt Q99383 494-534, looked up)
chain: RDRNDRDRDYNHAAAANHRRNGRGGRGGYNRRNNGYHPYNR
notes: as for B9
ddG [7]: 0.02 kcal/mol
ratio to parent [7]: 1.3
other: TΔS [7]: -2.6 kcal/mol/K
Kd [7]: 42 nM
other: ΔH [7]: -12.6 kcal/mol
dG [7]: -10 kcal/mol
binding result [6]: binds

B11: MBP–Hrp1p NLS R524A (peptide)
chain: B3 chain with A19R, A32R
Kd [4]: 37 nM

B12: MBP–Hrp1p NLS R525A (peptide)
chain: B3 chain with A19R, A31R
Kd [4]: 13 nM

B13: MBP–Hrp1p NLS 524RR525/AA (domain or fragment, S. cerevisiae, UniProt Q99383 494-534, looked up)
chain: B3 chain with A19R
notes: as for B9
Kd [7]: 62 nM
KD,mutant/KD,wild type [6]: 1.7

B14: MBP–Hrp1p NLS R512,R513,R516,R519/AAAA (domain or fragment, S. cerevisiae, UniProt Q99383 494-534, looked up)
chain: B3 chain with R20A, R23A, R26A, A31R, A32R
notes: Hrp1p NLS, residues 494-534; also called quadruple mutant (arginines to alanines); source: E. coli BL21(DE3), purified (amylose resin, cation exchange)
Kd [4]: 194 nM
fold decrease in binding against wild type [6]: 5 fold

B15: MBP–Hrp1p NLS Y529L (domain or fragment, S. cerevisiae, UniProt Q99383 494-534, looked up)
chain: B3 chain with A19R, A31R, A32R, Y36L
notes: as for B9
Kd [4]: 37 nM
binding result [6]: binds

B16: MBP–Hrp1p NLS 516RGG518/AAA (domain or fragment, S. cerevisiae, UniProt Q99383 494-534, looked up)
chain: RDRNDRDRDYNHRSGGNHRRNGAAARGGYNRRNNGYHPYNR
notes: as for B9
ddG [7]: -0.3 kcal/mol
ratio to parent [7]: 0.7
other: TΔS [7]: 2 kcal/mol/K
Kd [7]: 24 nM
other: ΔH [7]: -8.3 kcal/mol
dG [7]: -10.3 kcal/mol
binding result [6]: binds

B17: MBP–Hrp1p NLS R512, R513, R516, R519/KKKK (domain or fragment, S. cerevisiae, UniProt Q99383 494-534, looked up)
chain: RDRNDRDRDYNHRSGGNHKKNGKGGKGGYNRRNNGYHPYNR
notes: Hrp1p NLS, residues 494-534; also called quadruple mutant (arginines to lysines); source: E. coli BL21(DE3), purified (amylose resin, cation exchange)
Kd [4]: 36 nM
binding result [6]: binds

B18: MBP–Hrp1p NLS Y529A (domain or fragment, S. cerevisiae, UniProt Q99383 494-534, looked up)
chain: B3 chain with A19R, A31R, A32R, Y36A
notes: as for B9
Kd [4]: 143 nM
KD,mutant/KD,wild type [6]: 4

B19: MBP–Hrp1p NLS 512RRNG515/AAAA (domain or fragment, S. cerevisiae, UniProt Q99383 494-534, looked up)
chain: B3 chain with R20A, N21A, G22A, A31R, A32R
notes: as for B9
ddG [7]: 0.2 kcal/mol
ratio to parent [7]: 1.5
other: TΔS [7]: 1.5 kcal/mol/K
Kd [7]: 48 nM
other: ΔH [7]: -8.3 kcal/mol
dG [7]: -9.8 kcal/mol
binding result [6]: binds

B20: GST–Hrp1p, full-length (natural protein, S. cerevisiae, UniProt Q99383 1-534, looked up)
chain: MSSDEEDFNDIYGDDKPTTTEEVKKEEEQNKAGSGTSQLDQLAALQALSSSLNKLNNPNSNNSSSNNSNQDTSSSKQDGTANDKEGSNEDTKNEKKQESATSANANANASSAGPSGLPWEQLQQTMSQFQQPSSQSPPQQQVTQTKEERSKADLSKESCKMFIGGLNWDTTEDNLREYFGKYGTVTDLKIMKDPATGRSRGFGFLSFEKPSSVDEVVKTQHILDGKVIDPKRAIPRDEQDKTGKIFVGGIGPDVRPKEFEEFFSQWGTIIDAQLMLDKDTGQSRGFGFVTYDSADAVDRVCQNKFIDFKDRKIEIKRAEPRHMQQKSSNNGGNNGGNNMNRRGGNFGNQGDFNQMYQNPMMGGYNPMMNPQAMTDYYQKMQEYYQQMQKQTGMDYTQMYQQQMQQMAMMMPGFAMPPNAMTLNQPQQDSNATQGSPAPSDSDNNKSNDVQTIGNTSNTDSGSPPLNLPNGPKGPSQYNDDHNSGYGYNRDRGDRDRNDRDRDYNHRSGGNHRRNGRGGRGGYNRRNNGYHPYNR
notes: Hrp1p, S. cerevisiae; also called full-length Hrp1p; source: E. coli BL21(DE3), immobilized on glutathione sepharose
binding result [3]: binds
